Data from article PMC10371074, “Allosteric control of dynamin-related protein 1-catalyzed mitochondrial fission through a conserved disordered C-terminal Short Linear Motif” (Research Square, 2023).
Several values for one entry are separate records, joined by “and”; a condition that tells them apart may be missing. Identical values can stand only once.

B1: human Drp1 (isoform 3) ΔCT6, last six residues (whole CT-SLiM) removed (enzyme, UniProt O00429-4 1-693, looked up)
chain: MEALIPVINKLQDVFNTVGADIIQLPQIVVVGTQSSGKSSVLESLVGRDLLPRGTGIVTRRPLILQLVHVSQEDKRKTTGEENGVEAEEWGKFLHTKNKLYTDFDEIRQEIENETERISGNNKGVSPEPIHLKIFSPNVVNLTLVDLPGMTKVPVGDQPKDIELQIRELILRFISNPNSIILAVTAANTDMATSEALKISREVDPDGRRTLAVITKLDLMDAGTDAMDVLMGRVIPVKLGIIGVVNRSQLDINNKKSVTDSIRDEYAFLQKKYPSLANRNGTKYLARTLNRLLMHHIRDCLPELKTRINVLAAQYQSLLNSYGEPVDDKSATLLQLITKFATEYCNTIEGTAKYIETSELCGGARICYIFHETFGRTLESVDPLGGLNTIDILTAIRNATGPRPALFVPEVSFELLVKRQIKRLEEPSLRCVELVHEEMQRIIQHCSNYSTQELLRFPKLHDAIVEVVTCLLRKRLPVTNEMVHNLVAIELAYINTKHPDFADACGLMNNNIEEQRRNRLARELPSAVSRDKVASGGGGVGDGVQEPTTGNWRGMLKTSKAEELLAEEKSKPIPIMPASPQKGHAVNLLDVPVPVARKLSAREQRDCEVIERLIKSYFLIVRKNIQDSVPKAVMHFLVNHVKDTLQSELVGQLYKSSLLDDLLTESEDMAQRRKEAADMLKALQGASQIIAEI
notes: Dynamin-related protein 1 (Drp1), human, isoform 3 (699 aa residues), with the last six residues R694-W699 removed; also called ΔCT6 Drp1; DCT6 Drp1
B2: human dynamin-related protein 1 (Drp1) isoform 3, wild type, N-terminally His6-tagged (enzyme, UniProt O00429-4 1-699, looked up)
chain: MEALIPVINKLQDVFNTVGADIIQLPQIVVVGTQSSGKSSVLESLVGRDLLPRGTGIVTRRPLILQLVHVSQEDKRKTTGEENGVEAEEWGKFLHTKNKLYTDFDEIRQEIENETERISGNNKGVSPEPIHLKIFSPNVVNLTLVDLPGMTKVPVGDQPKDIELQIRELILRFISNPNSIILAVTAANTDMATSEALKISREVDPDGRRTLAVITKLDLMDAGTDAMDVLMGRVIPVKLGIIGVVNRSQLDINNKKSVTDSIRDEYAFLQKKYPSLANRNGTKYLARTLNRLLMHHIRDCLPELKTRINVLAAQYQSLLNSYGEPVDDKSATLLQLITKFATEYCNTIEGTAKYIETSELCGGARICYIFHETFGRTLESVDPLGGLNTIDILTAIRNATGPRPALFVPEVSFELLVKRQIKRLEEPSLRCVELVHEEMQRIIQHCSNYSTQELLRFPKLHDAIVEVVTCLLRKRLPVTNEMVHNLVAIELAYINTKHPDFADACGLMNNNIEEQRRNRLARELPSAVSRDKVASGGGGVGDGVQEPTTGNWRGMLKTSKAEELLAEEKSKPIPIMPASPQKGHAVNLLDVPVPVARKLSAREQRDCEVIERLIKSYFLIVRKNIQDSVPKAVMHFLVNHVKDTLQSELVGQLYKSSLLDDLLTESEDMAQRRKEAADMLKALQGASQIIAEIRETHLW
notes: Dynamin-related protein 1 (Drp1), human, isoform 3, 699 aa residues; the last six residues R694-W699 (RETHLW) are the CT-SLiM; also called WT Drp1; WT; not shown: His6 (36 aa-residue N-terminal tag), N-terminal, kept

Columns and labels:
[1] = target: the molecule itself; assay: SEC-MALS; nucleotide-free apo state in solution; Superose 6 10/300 GL column; 5 uM protein at injection (Fig. 1E), other injection concentrations in Fig. S2C
[2] = target: the molecule itself; assay: negative-stain EM; 2-D class averages of single particles; Drp1 at 2 uM, apo state and with 1 mM GTP
[3] = target: B2; assay: negative-stain EM; Drp1 (1.5 uM) pre-incubated with GIPC-1 (6 uM) for 15 min at room temperature, then CL-containing liposomes (50 uM total lipid) for 15 min; equimolar and 1:4 ratios; conditions: both partners purified
[4] = target: the molecule itself; assay: SEC-MALS; full-length GIPC-1, unliganded, 10 uM at injection; Superdex 200 10/300 GL column; dimer to monomers
[5] = target: B1; assay: negative-stain EM; 2-D class averages; apo Drp1 (2 uM) with GIPC-1 (8 uM), 1:4 molar ratio; conditions: both partners purified

Row | Binder | stoichiometry N [1] | stoichiometry N [2] | binding result [3] | stoichiometry N [4] | binding result [5]
1 | B1 | 2 and 4 | – | – | – | –
2 | human Drp1 (isoform 3) ΔCT4, last four residues of the CT-SLiM removed (enzyme, UniProt O00429-4 1-695, looked up, Dynamin-related protein 1 (Drp1), human, isoform 3 (699 aa residues), with the last four residues removed; also called ΔCT4 Drp1; ΔCT4/6) MEALIPVINKLQDVFNTVGADIIQLPQIVVVGTQSSGKSSVLESLVGRDLLPRGTGIVTRRPLILQLVHVSQEDKRKTTGEENGVEAEEWGKFLHTKNKLYTDFDEIRQEIENETERISGNNKGVSPEPIHLKIFSPNVVNLTLVDLPGMTKVPVGDQPKDIELQIRELILRFISNPNSIILAVTAANTDMATSEALKISREVDPDGRRTLAVITKLDLMDAGTDAMDVLMGRVIPVKLGIIGVVNRSQLDINNKKSVTDSIRDEYAFLQKKYPSLANRNGTKYLARTLNRLLMHHIRDCLPELKTRINVLAAQYQSLLNSYGEPVDDKSATLLQLITKFATEYCNTIEGTAKYIETSELCGGARICYIFHETFGRTLESVDPLGGLNTIDILTAIRNATGPRPALFVPEVSFELLVKRQIKRLEEPSLRCVELVHEEMQRIIQHCSNYSTQELLRFPKLHDAIVEVVTCLLRKRLPVTNEMVHNLVAIELAYINTKHPDFADACGLMNNNIEEQRRNRLARELPSAVSRDKVASGGGGVGDGVQEPTTGNWRGMLKTSKAEELLAEEKSKPIPIMPASPQKGHAVNLLDVPVPVARKLSAREQRDCEVIERLIKSYFLIVRKNIQDSVPKAVMHFLVNHVKDTLQSELVGQLYKSSLLDDLLTESEDMAQRRKEAADMLKALQGASQIIAEIRE | 2 and 4 | – | – | – | –
3 | B2 | 4 | 2 | – | – | –
4 | mouse GIPC-1 (GAIP interacting protein, C-terminus 1), full length (natural protein, UniProt Q9Z0G0 1-333, looked up, N-terminal IDR, GH1, PDZ and GH2 domains; GST removed after purification by HRV3C proteolysis; also called full-length GIPC-1; source: subcloned in pGEX-6P1, expressed and purified using standard protocols; aggregates removed by centrifugation and/or gel filtration; not shown: GST, N-terminal, cleaved) MPLGLGRRKKAPPLVENEEAEPSRSGLGVGEPGPLGGSAAGESQMGLPPPPAALRPRLVFHTQLAHGSPTGRIEGFTNVKELYGKIAEAFRLPAAEVMFCTLNTHKVDMDKLLGGQIGLEDFIFAHVKGQRKEVEVFKSEEALGLTITDNGAGYAFIKRIKEGSVIDHIQLISVGDMIEAINGQSLLGCRHYEVARLLKELPRGRTFTLKLTEPRKAFDMISQRSAGGHPGSGPQLGTGRGTLRLRSRGPATVEDLPSAFEEKAIEKVDDLLESYMGIRDTELAATMVELGKDKRNPDELAEALDERLGDFAFPDEFVFDVWGAIGDAKVGRY | – | – | binds | 2 | binds
